Measured values published in FireProtDB (doi:10.1038/342296a0).

B1: Ribonuclease, P00648 (parent)
chain: MMKMEGIALKKRLSWISVCLLVLVSAAGMLFSTAAKTETSSHKAHTEAQVINTFDGVADYLQTYHKLPDNYITKSEAQALGWVASKGNLADVAPGKSIGGDIFSNREGKLPGKSGRTWREADINYTSGFRNSDRILYSSDWLIYKTTDHYQTFTKIR

Variants of: B1
Details: Bacillus amyloliquefaciens; pH 6.3; 25 °C; Urea; Fluorescence; MES 19.3 mM; reversible: yes; structure 1BNI; whole UniProt chain shown

Variant	ddG of mutation (higher = less stable) [kcal/mol]
MMKMEGIALKKRLSWISVCLLVLVSAAGMLFSTAAKTETSSHKAHTEAQVINTFDGVADYLQTYHKLPDNYIAKSEAQALGWVASKGNLADVAPGKSIGGDIFSNREGKLPGKSGRTWREADINYTSGFRNSDRILYSSDWLIYKTTDHYQTFTKIR [T73A]	2.11
MMKMEGIALKKRLSWISVCLLVLVSAAGMLFSTAAKTETSSHKAHTEAQVINTFDGVADYLQTYHKLPDNYINKSEAQALGWVASKGNLADVAPGKSIGGDIFSNREGKLPGKSGRTWREADINYTSGFRNSDRILYSSDWLIYKTTDHYQTFTKIR [T73N]	1.29
MMKMEGIALKKRLSWISVCLLVLVSAAGMLFSTAAKTETSSHKAHTEAQVINTFDGVADYLQTYHKLPDNYIGKSEAQALGWVASKGNLADVAPGKSIGGDIFSNREGKLPGKSGRTWREADINYTSGFRNSDRILYSSDWLIYKTTDHYQTFTKIR [T73G]	1.58
MMKMEGIALKKRLSWISVCLLVLVSAAGMLFSTAAKTETSSHKAHTEAQVINTFDGVADYLQTYHKLPDNYIEKSEAQALGWVASKGNLADVAPGKSIGGDIFSNREGKLPGKSGRTWREADINYTSGFRNSDRILYSSDWLIYKTTDHYQTFTKIR [T73E]	0.05
MMKMEGIALKKRLSWISVCLLVLVSAAGMLFSTAAKTETSSHKAHTEAQVINTFDGVADYLQTYHKLPDNYIQKSEAQALGWVASKGNLADVAPGKSIGGDIFSNREGKLPGKSGRTWREADINYTSGFRNSDRILYSSDWLIYKTTDHYQTFTKIR [T73Q]	1.72
MMKMEGIALKKRLSWISVCLLVLVSAAGMLFSTAAKTETSSHKAHTEAQVINTFDGVADYLQTYHKLPDNYIVKSEAQALGWVASKGNLADVAPGKSIGGDIFSNREGKLPGKSGRTWREADINYTSGFRNSDRILYSSDWLIYKTTDHYQTFTKIR [T73V]	2.31
MMKMEGIALKKRLSWISVCLLVLVSAAGMLFSTAAKTETSSHKAHTEAQVINNFDGVADYLQTYHKLPDNYITKSEAQALGWVASKGNLADVAPGKSIGGDIFSNREGKLPGKSGRTWREADINYTSGFRNSDRILYSSDWLIYKTTDHYQTFTKIR [T53N]	1.27
MMKMEGIALKKRLSWISVCLLVLVSAAGMLFSTAAKTETSSHKAHTEAQVINGFDGVADYLQTYHKLPDNYITKSEAQALGWVASKGNLADVAPGKSIGGDIFSNREGKLPGKSGRTWREADINYTSGFRNSDRILYSSDWLIYKTTDHYQTFTKIR [T53G]	1.34
MMKMEGIALKKRLSWISVCLLVLVSAAGMLFSTAAKTETSSHKAHTEAQVINSFDGVADYLQTYHKLPDNYITKSEAQALGWVASKGNLADVAPGKSIGGDIFSNREGKLPGKSGRTWREADINYTSGFRNSDRILYSSDWLIYKTTDHYQTFTKIR [T53S]	0.22
MMKMEGIALKKRLSWISVCLLVLVSAAGMLFSTAAKTETSSHKAHTEAQVINDFDGVADYLQTYHKLPDNYITKSEAQALGWVASKGNLADVAPGKSIGGDIFSNREGKLPGKSGRTWREADINYTSGFRNSDRILYSSDWLIYKTTDHYQTFTKIR [T53D]	-0.11
MMKMEGIALKKRLSWISVCLLVLVSAAGMLFSTAAKTETSSHKAHTEAQVINEFDGVADYLQTYHKLPDNYITKSEAQALGWVASKGNLADVAPGKSIGGDIFSNREGKLPGKSGRTWREADINYTSGFRNSDRILYSSDWLIYKTTDHYQTFTKIR [T53E]	0.27
MMKMEGIALKKRLSWISVCLLVLVSAAGMLFSTAAKTETSSHKAHTEAQVINAFDGVADYLQTYHKLPDNYITKSEAQALGWVASKGNLADVAPGKSIGGDIFSNREGKLPGKSGRTWREADINYTSGFRNSDRILYSSDWLIYKTTDHYQTFTKIR [T53A]	2.53
MMKMEGIALKKRLSWISVCLLVLVSAAGMLFSTAAKTETSSHKAHTEAQVINQFDGVADYLQTYHKLPDNYITKSEAQALGWVASKGNLADVAPGKSIGGDIFSNREGKLPGKSGRTWREADINYTSGFRNSDRILYSSDWLIYKTTDHYQTFTKIR [T53Q]	1.87
